Results as given in patent US20070022485, “Method of preparing transgenic organism with use of methylation and system therefor” (Japan Science Techonology Agency, published 2007).

Columns and labels:
[1] = system: Tc3 transposase (pRP2302) (Caenorhabditis elegans); test: cell_activity; conditions: 5mC at CpG; gene trap events in mouse ES cells
[2] = biological target: T1, SB transposase N123 (N-terminal 123 aa DNA-binding domain) (Sleeping Beauty (synthetic, …)); test: EMSA; poly(dI-dC) 1 ug, 25 C, 30 min; conditions: tags: C-terminal His6 (pET21d, E. coli); label: 32P 5'
T1 chain: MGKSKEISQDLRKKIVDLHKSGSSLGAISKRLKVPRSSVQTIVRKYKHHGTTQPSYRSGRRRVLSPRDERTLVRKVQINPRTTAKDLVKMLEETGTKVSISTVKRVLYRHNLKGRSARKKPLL
Experimental: (§1) This oligonucleotide was first labeled with [γ-³²P]ATP using T4 polynucleotide kinase, and then annealed. DNA fragment of IR/DR-L was digested with HindIII and KpnI for the preparation, and thereafter, the fragment was methylated using SssI methylase or kept unmethylated and then the fragment was treated with an alkaline phosphatase. The digested fragment was extracted using phenol-chloroform, and precipitated with ethanol, and then finally, T4 polynucleotide was used to label with [γ-³²P]ATP. In the presence of poly(dI-dC) (1.0 μg), 0.2 pmol of oligonucleotide probe or 100 pg of IR/DR-L fragment, and 1.0 μl of N123, a nucleoprotein complex was formed in a buffer described previously in Ivics, Z., P. B. Hackett, R. H. Plasterk, and Z. Izsvak. 1997; Cell 91:501-510). After a thirty minute incubation at 25 degrees Celsius, samples were loaded on a 5%-native polyacrylamide gel, and electrophoresed at 150V constant voltage, and in 0.5× Tris-borate-EDTA, 1.5 hours for oligonucleotide probe and 2.5 hours for IR/DR-L fragment. After the gel was dried, the nucleoprotein was visualized by autoradiography.
(§2) In order to clarify the mechanism of transposition which has been enhanced by methylation of CpG, the present inventors have compared the affinity of recombinant SB transposase peptide against the methylated IR/DR and unmethylated IR/DR by EMSA. […]

[3] = biological target: T1, SB transposase N123 (N-terminal 123 aa …); test: EMSA; shift and competition comparable to unmethylated site; poly(dI-dC) 1 ug, 25 C; conditions: tags: C-terminal His6 (pET21d, E. coli); label: 32P 5'
Experimental: as §1, §2

**Q.** For “Tc3 transposon vector pTc3/SAβ-geo, CpG methylated”, which binding signal (fold vs unmethylated) [1] is on record?
**A.** 2

B1: IR/DR-L outer binding site, unmethylated 34 bp (dsDNA)
DNA 1: TACAGTTGAAGTCGGAAGTTTACATACACTTAAG
DNA 2: CTTAAGTGTATGTAAACTTCCGACTTCAACTGTA
**Q.** Does B1 bind [2]?
**A.** binds

B2: IR/DR-L outer binding site, methylated 34 bp (dsDNA)
DNA 1: TACAGTTGAAGTCGGAAGTTTACATACACTTAAG
DNA 2: CTTAAGTGTATGTAAACTTCCGACTTCAACTGTA
modifications: 5mC at the CpG on both strands (n in SEQ:64 and SEQ:65)
**Q.** Does B2 bind [3]?
**A.** binds
